Measured values: PMC10267556

Target: SARS-CoV-2 Omicron BA.4/5 spike (S) trimer, prefusion-stabilised ectodomain (SARS-CoV-2 (Omicron BA.4/5) | bacteriophage T4) (UniProt P0DTC2)
Assay: cryo-EM structure

Work on “SARS-CoV-2 Omicron BA.4/5 spike (S) trimer, prefusion-stabilised ectodomain (from UniProt P0DTC2 14-1208) (complex)” yielded a stoichiometry N of 3.
